Experimental data from the supplement of paper PMC9732359.
± gives the uncertainty stated by the source.

Test: protein stability index of a GFP-peptide fusion (yeast GPS) (PSI 1-4); higher = more stable; sorted into four equal gates, so the index is relative within each strain
Outline: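 Each library plasmid carries Cherry plus GFP with a tiled 17-residue yeast protein peptide fused downstream, and the pooled library was carried in yeast. Mid-log cultures in leucine-free medium were sorted into four equal gates by GFP/Cherry ratio. Reads from Illumina sequencing of PCR-amplified plasmids from each gate were assigned to strains by barcodes. Per peptide, the protein stability index was computed as the summed products of gate read frequency and gate number.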

| Sequence | protein stability index (doa10∆) | protein stability index (pdr5∆) | protein stability index (san1∆) | protein stability index (ubr1∆) |
| --- | --- | --- | --- | --- |
| GQSINDSLKKLLPQWDD [ARP9] | 2.88 ± 0.047 | 2.86 ± 0.044 | 2.74 ± 0.045 | 2.88 ± 0.04 |
| GIVLEKLGIESKQPNSA [RPS23A] | 2.05 ± 0.071 | 2.11 ± 0.072 | 1.92 ± 0.11 | 2.38 ± 0.1 |
| SEVRKAVSIETALEHKV [FAS2] | 1.67 ± 0.12 | 1.4 ± 0.095 | 1.35 ± 0.12 | 1.39 ± 0.051 |
| QPQPQPQQQQQHLQFNG [YDL088C/ASM4] | 2.6 ± 0.036 | 2.78 ± 0.038 | 2.5 ± 0.051 | 2.919 ± 0.024 |
| PSLNKTINGKVNGRTKS [GAL11] | 3.06 ± 0.14 | 3.07 ± 0.13 | 2.98 ± 0.14 | 3.11 ± 0.14 |
| RATTYEKLTMVFQDNVY [SIN4] | 2.2 ± 0.065 | 2.48 ± 0.051 | 2.21 ± 0.11 | 2.53 ± 0.057 |
| LSHYAKIRPWRTFRLNE [RPO31] | 2.86 ± 0.058 | 2.4 ± 0.055 | 3.06 ± 0.073 | 2.5 ± 0.051 |
| SIWQVKDQLPDLESMGL [MED7] | 2.81 ± 0.11 | 3.04 ± 0.079 | 2.93 ± 0.12 | 3.35 ± 0.097 |
| SVPLRKGDRALLVKLSK [BRR2] | 2.46 ± 0.17 | 3.33 ± 0.18 | 3.06 ± 0.094 | 2.99 ± 0.15 |
| SYYSREQDALFITRLAQ [RPN1] | 1.71 ± 0.044 | 1.85 ± 0.045 | 1.65 ± 0.078 | 1.8 ± 0.042 |
| GQLGEMAKCLDNPDQGI [YCS4] | 3.13 ± 0.14 | 3.49 ± 0.12 | 3.39 ± 0.065 | 3.29 ± 0.15 |
| LNESDCLEACSFILSSL [YDL116W/NUP84] | 2.62 ± 0.056 | 2.58 ± 0.052 | 2.96 ± 0.052 | 2.65 ± 0.041 |
| IRARIPFYGSYTETDPA [SRP54] | 2.96 ± 0.092 | 2.91 ± 0.082 | 2.98 ± 0.06 | 2.96 ± 0.076 |
| MGKRVDFSARTVISGDP [RPO21] | 2.98 ± 0.087 | 3.27 ± 0.12 | 3.08 ± 0.14 | 3.1 ± 0.19 |
| KDNVEHLVMRAISLGLL [RPN9] | 2.43 ± 0.075 | 2.92 ± 0.074 | 2.48 ± 0.071 | 2.76 ± 0.059 |
| EEISFSLSEGCDILVAT [PRP28] | 2.62 ± 0.1 | 2.69 ± 0.06 | 2.72 ± 0.071 | 2.96 ± 0.058 |
| GIKLALDPNLITLALSS [SRB4] | 2.21 ± 0.052 | 2.91 ± 0.065 | 2.58 ± 0.055 | 2.63 ± 0.04 |
| IQSAESIKSQKEEISDQ [SWI3] | 2.4 ± 0.26 | 3.08 ± 0.14 | 2.58 ± 0.098 | 2.85 ± 0.11 |
| EVDEKPTETYSDVGGLD [RPT5] | 3.35 ± 0.082 | 3.3 ± 0.07 | 3.16 ± 0.058 | 3.23 ± 0.059 |
| HPGYDCWLSNIDIQTQD [RRI1] | 2.72 ± 0.099 | 3.14 ± 0.091 | 3.08 ± 0.062 | 3.16 ± 0.075 |

| Sequence | protein stability index (doa10∆) | protein stability index (pdr5∆) | protein stability index (san1∆) | protein stability index (ubr1∆) |
| --- | --- | --- | --- | --- |
| ERSYPSEFANQNQGGAQ [ROX3] | 2.98 ± 0.083 | 3.07 ± 0.092 | 2.96 ± 0.066 | 3.17 ± 0.061 |
| INDKRANLMLVMLRLLL [SRB4] | 1.6 ± 0.039 | 1.61 ± 0.047 | 1.97 ± 0.067 | 1.94 ± 0.04 |
| RKNRYVILQSDLEEAYA [RPT3] | 2.41 ± 0.22 | 2.23 ± 0.15 | 2.1 ± 0.17 | 2.11 ± 0.11 |
| SLQSCSVAVHFQYVIDE [SMC4] | 1.82 ± 0.082 | 1.3 ± 0.039 | 1.47 ± 0.084 | 1.54 ± 0.048 |
| RDDALVVETITSLLNKV [RRP42] | 2.88 ± 0.071 | 2.83 ± 0.048 | 3.1 ± 0.054 | 3.06 ± 0.045 |
| EMNLHVPQTEEARAEAI [RPO31] | 3.09 ± 0.1 | 3.08 ± 0.085 | 3.05 ± 0.08 | 3.12 ± 0.045 |
| EKAKSAGVQGSKVSKQQ [RPL24B] | 3.48 ± 0.14 | 3.4 ± 0.11 | 3.31 ± 0.14 | – |
| RVLITQRHIAVGKQIVN [RPS9A] | 2.22 ± 0.072 | 1.92 ± 0.087 | 2.83 ± 0.12 | 2.59 ± 0.15 |
| TKNIPITHRDLHYDKDY [SSN8] | 2.65 ± 0.043 | 2.87 ± 0.041 | 2.87 ± 0.03 | 2.83 ± 0.039 |
| ICLMTLIETVFVKNIRM [RPN9] | 1.22 ± 0.064 | 1.3 ± 0.069 | 1.22 ± 0.13 | 1.35 ± 0.074 |
| DIDGIMDNPRKLSKILR [SNU114] | 3.01 ± 0.074 | 2.96 ± 0.084 | 2.94 ± 0.058 | 2.96 ± 0.067 |
| PKFAIQDNHHITKVTEN [YMR129W/POM152] | 2.83 ± 0.052 | 2.88 ± 0.058 | 2.75 ± 0.04 | 3.09 ± 0.041 |
| QEDELDEGTALSRLGLK [RPB10] | 3.41 ± 0.073 | 3.38 ± 0.086 | 3.5 ± 0.058 | 3.06 ± 0.079 |
| VMRNTYNTRKNAVTAAA [GAL11] | 1.78 ± 0.045 | 1.94 ± 0.051 | 2.11 ± 0.07 | 1.97 ± 0.036 |
| MTTQQEEQRSDTKNSKS [ISW2] | 3.26 ± 0.17 | 3.08 ± 0.18 | 2.73 ± 0.26 | 3.2 ± 0.19 |
| TMETKTLPEKKQFDSIF [SIR4] | 2.44 ± 0.047 | 2.69 ± 0.057 | 2.84 ± 0.047 | 2.65 ± 0.043 |
| RDYQRINKNSKIALREY [POP4] | 2.77 ± 0.081 | 2.29 ± 0.053 | 2.69 ± 0.076 | 2.73 ± 0.063 |
| ELGISLEHPYGKEVEVL [SNU114] | 2.29 ± 0.082 | 2.34 ± 0.086 | 2.17 ± 0.094 | 2.14 ± 0.056 |
| KANIFQVIKNEVCAKMP [SSN2] | 2.7 ± 0.14 | 2.27 ± 0.084 | 1.4 ± 0.21 | 1.84 ± 0.09 |
